According to article PMC6335423, “Recurrent activating mutations of PPARγ associated with luminal bladder tumors” (Nature Communications, 2019):
Blank lines part the entries; values can stand above or below the binder they belong to. Ends that are not written are not given here.

Experiments:
[1] = biological target: T1, PPARγ ligand-binding domain, wild type, His-hPPARγ (231–505) (human, UniProt P37231-1 231-505); test: native MS; native electrospray MS, 5 µM protein in 200 mM ammonium acetate pH 6.8; GW1929 and coactivator peptide added; settings: both partners purified
T1 construct: Cloned in pET15b; also called PPARγ LBD WT; PPARγ WT; source: E. coli BL21 DE3, purified (Ni-NTA, size exclusion on Superdex 200)
T1 sequence (looked up): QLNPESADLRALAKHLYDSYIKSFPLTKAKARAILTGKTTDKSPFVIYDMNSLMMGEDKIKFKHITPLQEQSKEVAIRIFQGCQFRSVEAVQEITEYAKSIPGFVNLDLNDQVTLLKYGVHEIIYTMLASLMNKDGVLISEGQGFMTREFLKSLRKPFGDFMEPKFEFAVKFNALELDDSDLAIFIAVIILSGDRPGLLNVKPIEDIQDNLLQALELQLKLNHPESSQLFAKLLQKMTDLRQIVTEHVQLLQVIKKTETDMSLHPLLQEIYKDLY

[2] = biological target: T2, PPARγ ligand-binding domain, wild type, His-hPPARγ (231–505) (human, UniProt P37231-1 231-505); test: MST; with GW1929
T2 chain: T1 sequence (looked up)

[3] = biological target: T2, PPARγ ligand-binding domain, wild type, …; test: MST; apo (no ligand)
[4] = biological target: T1, PPARγ ligand-binding domain, wild type, …; test: MST; no ligand; unlabeled PPARγ LBD (100 µM to 2 nM) titrated into 150 nM fluorescent PGC1α peptide; 20 mM Tris pH 8.0, 200 mM NaCl, 1 mM TCEP, 0.05% Tween 20, 25 °C; apparent Kd; settings: both partners purified
[5] = biological target: T2, PPARγ ligand-binding domain, wild type, …; test: MST; with rosiglitazone

binding result [1]: binds
B1: PGC1α peptide (139-EEPSLLKKLLLAPA-152) (peptide)
peptide: EEPSLLKKLLLAPA
notes: PGC1α (PPARGC1A) residues 139-152; source: synthetic peptide (IGBMC peptide synthesis common facility)

Kd [2]: 380 nM
Kd [3]: 1700 nM
binding result [4]: binds
Kd [5]: 1000 nM
B2: fluorescent PGC1α peptide (137-EAEEPSLLKKLLLAPA-152) (peptide)
peptide: EAEEPSLLKKLLLAPA
modifications: also: fluorescent label (dye and position not given here)
notes: PGC1α (PPARGC1A) residues 137-152, NR1 LXXLL motif; also called fluorescently labeled PGC1α peptide; PGC1α NR1 motif; source: bought: Thermo-Fisher (synthetic peptide)
